Key:
[1] = tested on: GFP-14-3-3β and its binding proteins; assay: GFP-14-3-3β co-IP with LC-MS/MS label-free quantification, untreated versus PP1c-treated; set-up: species or system human; settings: PP1 vs untreated; LFQ intensities, replicates 1-3
GFP-14-3-3β = GFP-14-3-3β co-IP with LC-MS/MS, untreated GFP-14-3-3β versus GFP control (14-3-3 interactome); type: binding, human; settings: untreated vs GFP; LFQ intensities, replicates 1-3

| Molecule | Difference (log2), PP1 vs untreated [1] | Difference (log2), untreated vs GFP (GFP-14-3-3β) |
| --- | --- | --- |
| ACIN1 (protein, UniProt Q9UKV3 1-1341, looked up) Apoptotic chromatin …: MWRRKHPRTSGGTRGVLSGNRGVEYGSGRGHLGTFEGRWRKLPKMPEAVGTDPSTSRKMAELEEVTLDGKPLQALRVTDLKAALEQRGLAKSGQKSALVKRLKGALMLENLQKHSTPHAAFQPNSQIGEEMSQNSFIKQYLEKQQELLRQRLEREAREAAELEEASAESEDEMIHPEGVASLLPPDFQSSLERPELELSRHSPRKSSSISEEKGDSDDEKPRKGERRSSRVRQARAAKLSEGSQPAEEEEDQETPSRNLRVRADRNLKTEEEEEEEEEEEEDDEEEEGDDEGQKSREAPILKEFKEEGEEIPRVKPEEMMDERPKTRSQEQEVLERGGRFTRSQEEARKSHLARQQQEKEMKTTSPLEEEEREIKSSQGLKEKSKSPSPPRLTEDRKKASLVALPEQTASEEETPPPLLTKEASSPPPHPQLHSEEEIEPMEGPAPAVLIQLSPPNTDADTRELLVSQHTVQLVGGLSPLSSPSDTKAESPAEKVPEESVLPLVQKSTLADYSAQKDLEPESDRSAQPLPLKIEELALAKGITEECLKQPSLEQKEGRRASHTLLPSHRLKQSADSSSSRSSSSSSSSSRSRSRSPDSSGSRSHSPLRSKQRDVAQARTHANPRGRPKMGSRSTSESRSRSRSRSRSASSNSRKSLSPGVSRDSSTSYTETKDPSSGQEVATPPVPQLQVCEPKERTSTSSSSVQARRLSQPESAEKHVTQRLQPERGSPKKCEAEEAEPPAATQPQTSETQTSHLPESERIHHTVEEKEEVTMDTSENRPENDVPEPPMPIADQVSNDDRPEGSVEDEEKKESSLPKSFKRKISVVSATKGVPAGNSDTEGGQPGRKRRWGASTATTQKKPSISITTESLKSLIPDIKPLAGQEAVVDLHADDSRISEDETERNGDDGTHDKGLKICRTVTQVVPAEGQENGQREEEEEEKEPEAEPPVPPQVSVEVALPPPAEHEVKKVTLGDTLTRRSISQQKSGVSITIDDPVRTAQVPSPPRGKISNIVHISNLVRPFTLGQLKELLGRTGTLVEEAFWIDKIKSHCFVTYSTVEEAVATRTALHGVKWPQSNPKFLCADYAEQDELDYHRGLLVDRPSETKTEEQGIPRPLHPPPPPPVQPPQHPRAEQREQERAVREQWAEREREMERRERTRSEREWDRDKVREGPRSRSRSRDRRRKERAKSKEKKSEKKEKAQEEPPAKLLDDLFRKTKAAPCIYWLPLTDSQIVQKEAERAERAKEREKRRKEQEEEEQKEREKEAERERNRQLEREKRREHSRERDRERERERERDRGDRDRDRERDRERGRERDRRDTKRHSRSRSRSTPVRDRGGRR | -1.001 log2 | 1.747 log2 |
| ZC3H18 (protein, UniProt Q86VM9 1-953, looked up) Zinc finger CCCH …: MDVAESPERDPHSPEDEEQPQGLSDDDILRDSGSDQDLDGAGVRASDLEDEESAARGPSQEEEDNHSDEEDRASEPKSQDQDSEVNELSRGPTSSPCEEEGDEGEEDRTSDLRDEASSVTRELDEHELDYDEEVPEEPAPAVQEDEAEKAGAEDDEEKGEGTPREEGKAGVQSVGEKESLEAAKEKKKEDDDGEIDDGEIDDDDLEEGEVKDPSDRKVRPRPTCRFFMKGNCTWGMNCRFIHPGVNDKGNYSLITKADPFPPNGAPPLGPHPLMPANPWGGPVVDEILPPPPPEPPTESAWERGLRHAKEVLKKATIRKEQEPDFEEKRFTVTIGEDEREFDKENEVFRDWNSRIPRDVRDTVLEPYADPYYDYEIERFWRGGQYENFRVQYTETEPYHNYRERERERERENRQRERERERERDRERERRQRERERERERERDKERQRRKEEWERERAKRDEKDRQHRDRDREKEREKEKGKPKPRSPQPPSRQAEPPKKEAATTGPQVKRADEWKDPWRRSKSPKKKLGVSVSPSRARRRRKTSASSASASNSSRSSSRSSSYSGSGSSRSRSRSSSYSSYSSRSSRHSSFSGSRSRSRSFSSSPSPSPTPSPHRPSIRTKGEPAPPPGKAGEKSVKKPAPPPAPPQATKTTAPVPEPTKPGDPREARRKERPARTPPRRRTLSGSGSGSGSSYSGSSSRSRSLSVSSVSSVSSATSSSSSAHSVDSEDMYADLASPVSSASSRSPAPAQTRKEKGKSKKEDGVKEEKRKRDSSTQPPKSAKPPAGGKSSQQPSTPQQAPPGQPQQGTFVAHKEIKLTLLNKAADKGSRKRYEPSDKDRQSPPPAKRPNTSPDRGSRDRKSGGRLGSPKPERQRGQNSKAPAAPADRKRQLSPQSKSSSKVTSVPGKASDPGAASTKSGKASTLSRREELLKQLKAVEDAIARKRAKIPGKA | -1.028 log2 | 1.571 log2 |
| TJP2 (protein, UniProt Q9UDY2 1-1190, looked up) Tight junction protein 2: MPVRGDRGFPPRRELSGWLRAPGMEELIWEQYTVTLQKDSKRGFGIAVSGGRDNPHFENGETSIVISDVLPGGPADGLLQENDRVVMVNGTPMEDVLHSFAVQQLRKSGKVAAIVVKRPRKVQVAALQASPPLDQDDRAFEVMDEFDGRSFRSGYSERSRLNSHGGRSRSWEDSPERGRPHERARSRERDLSRDRSRGRSLERGLDQDHARTRDRSRGRSLERGLDHDFGPSRDRDRDRSRGRSIDQDYERAYHRAYDPDYERAYSPEYRRGARHDARSRGPRSRSREHPHSRSPSPEPRGRPGPIGVLLMKSRANEEYGLRLGSQIFVKEMTRTGLATKDGNLHEGDIILKINGTVTENMSLTDARKLIEKSRGKLQLVVLRDSQQTLINIPSLNDSDSEIEDISEIESNRSFSPEERRHQYSDYDYHSSSEKLKERPSSREDTPSRLSRMGATPTPFKSTGDIAGTVVPETNKEPRYQEDPPAPQPKAAPRTFLRPSPEDEAIYGPNTKMVRFKKGDSVGLRLAGGNDVGIFVAGIQEGTSAEQEGLQEGDQILKVNTQDFRGLVREDAVLYLLEIPKGEMVTILAQSRADVYRDILACGRGDSFFIRSHFECEKETPQSLAFTRGEVFRVVDTLYDGKLGNWLAVRIGNELEKGLIPNKSRAEQMASVQNAQRDNAGDRADFWRMRGQRSGVKKNLRKSREDLTAVVSVSTKFPAYERVLLREAGFKRPVVLFGPIADIAMEKLANELPDWFQTAKTEPKDAGSEKSTGVVRLNTVRQIIEQDKHALLDVTPKAVDLLNYTQWFPIVIFFNPDSRQGVKTMRQRLNPTSNKSSRKLFDQANKLKKTCAHLFTATINLNSANDSWFGSLKDTIQHQQGEAVWVSEGKMEGMDDDPEDRMSYLTAMGADYLSCDSRLISDFEDTDGEGGAYTDNELDEPAEEPLVSSITRSSEPVQHEESIRKPSPEPRAQMRRAASSDQLRDNSPPPAFKPEPPKAKTQNKEESYDFSKSYEYKSNPSAVAGNETPGASTKGYPPPVAAKPTFGRSILKPSTPIPPQEGEEVGESSEEQDNAPKSVLGKVKIFEKMDHKARLQRMQELQEAQNARIEIAQKHPDIYAVPIKTHKPDPGTPQHTSSRPPEPQKAPSRPYQDTRGSYGSDAEEEEYRQQLSEHSKRGYYGQSARYRDTEL | -0.9629 log2 | 5.699 log2 |

Now from value to molecule, other results behind:

| Difference (log2), PP1 vs untreated [1] | Molecule | Difference (log2), untreated vs GFP (GFP-14-3-3β) |
| --- | --- | --- |
| -0.9344 log2 | GIGYF2 (protein, UniProt Q6Y7W6 2-1299, looked up) GRB10-interacting GYF protein …: AAETQTLNFGPEWLRALSSGGSITSPPLSPALPKYKLADYRYGREEMLALFLKDNKIPSDLLDKEFLPILQEEPLPPLALVPFTEEEQRNFSMSVNSAAVLRLTGRGGGGTVVGAPRGRSSSRGRGRGRGECGFYQRSFDEVEGVFGRGGGREMHRSQSWEERGDRRFEKPGRKDVGRPNFEEGGPTSVGRKHEFIRSESENWRIFREEQNGEDEDGGWRLAGSRRDGERWRPHSPDGPRSAGWREHMERRRRFEFDFRDRDDERGYRRVRSGSGSIDDDRDSLPEWCLEDAEEEMGTFDSSGAFLSLKKVQKEPIPEEQEMDFRPVDEGEECSDSEGSHNEEAKEPDKTNKKEGEKTDRVGVEASEETPQTSSSSARPGTPSDHQSQEASQFERKDEPKTEQTEKAEEETRMENSLPAKVPSRGDEMVADVQQPLSQIPSDTASPLLILPPPVPNPSPTLRPVETPVVGAPGMGSVSTEPDDEEGLKHLEQQAEKMVAYLQDSALDDERLASKLQEHRAKGVSIPLMHEAMQKWYYKDPQGEIQGPFNNQEMAEWFQAGYFTMSLLVKRACDESFQPLGDIMKMWGRVPFSPGPAPPPHMGELDQERLTRQQELTALYQMQHLQYQQFLIQQQYAQVLAQQQKAALSSQQQQQLALLLQQFQTLKMRISDQNIIPSVTRSVSVPDTGSIWELQPTASQPTVWEGGSVWDLPLDTTTPGPALEQLQQLEKAKAAKLEQERREAEMRAKREEEERKRQEELRRQQEEILRRQQEEERKRREEEELARRKQEEALRRQREQEIALRRQREEEERQQQEEALRRLEERRREEEERRKQEELLRKQEEEAAKWAREEEEAQRRLEENRLRMEEEAARLRHEEEERKRKELEVQRQKELMRQRQQQQEALRRLQQQQQQQQLAQMKLPSSSTWGQQSNTTACQSQATLSLAEIQKLEEERERQLREEQRRQQRELMKALQQQQQQQQQKLSGWGNVSKPSGTTKSLLEIQQEEARQMQKQQQQQQQHQQPNRARNNTHSNLHTSIGNSVWGSINTGPPNQWASDLVSSIWSNADTKNSNMGFWDDAVKEVGPRNSTNKNKNNASLSKSVGVSNRQNKKVEEEEKLLKLFQGVNKAQDGFTQWCEQMLHALNTANNLDVPTFVSFLKEVESPYEVHDYIRAYLGDTSEAKEFAKQFLERRAKQKANQQRQQQQLPQQQQQQPPQQPPQQPQQQDSVWGMNHSTLHSVFQTNQSNNQQSNFEAVQSGKKKKKQKMVRADPSLLGFSVNASSERLNMGEIETLDDY | 2.445 log2 |
| -0.9888 log2 | CENPV (protein, UniProt Q7Z7K6 1-275, looked up) Centromere protein V: MRRSRSSAAAKLRGQKRSGASGASAAPAASAAAALAPSATRTRRSASQAGSKSQAVEKPPSEKPRLRRSSPRAQEEGPGEPPPPELALLPPPPPPPPTPATPTSSASNLDLGEQRERWETFQKRQKLTSEGAAKLLLDTFEYQGLVKHTGGCHCGAVRFEVWASADLHIFDCNCSICKKKQNRHFIVPASRFKLLKGAEHITTYTFNTHKAQHTFCKRCGVQSFYTPRSNPGGFGIAPHCLDEGTVRSMVTEEFNGSDWEKAMKEHKTIKNMSKE | 2.895 log2 |
| -0.9107 log2 | HSD17B4 (protein, UniProt P51659 1-736, looked up) Peroxisomal multifunctional …: MGSPLRFDGRVVLVTGAGAGLGRAYALAFAERGALVVVNDLGGDFKGVGKGSLAADKVVEEIRRRGGKAVANYDSVEEGEKVVKTALDAFGRIDVVVNNAGILRDRSFARISDEDWDIIHRVHLRGSFQVTRAAWEHMKKQKYGRIIMTSSASGIYGNFGQANYSAAKLGLLGLANSLAIEGRKSNIHCNTIAPNAGSRMTQTVMPEDLVEALKPEYVAPLVLWLCHESCEENGGLFEVGAGWIGKLRWERTLGAIVRQKNHPMTPEAVKANWKKICDFENASKPQSIQESTGSIIEVLSKIDSEGGVSANHTSRATSTATSGFAGAIGQKLPPFSYAYTELEAIMYALGVGASIKDPKDLKFIYEGSSDFSCLPTFGVIIGQKSMMGGGLAEIPGLSINFAKVLHGEQYLELYKPLPRAGKLKCEAVVADVLDKGSGVVIIMDVYSYSEKELICHNQFSLFLVGSGGFGGKRTSDKVKVAVAIPNRPPDAVLTDTTSLNQAALYRLSGDWNPLHIDPNFASLAGFDKPILHGLCTFGFSARRVLQQFADNDVSRFKAIKARFAKPVYPGQTLQTEMWKEGNRIHFQTKVQETGDIVISNAYVDLAPTSGTSAKTPSEGGKLQSTFVFEEIGRRLKDIGPEVVKKVNAVFEWHITKGGNIGAKWTIDLKSGSGKVYQGPAKGAADTTIILSDEDFMEVVLGKLDPQKAFFSGRLKARGNIMLSQKLQMILKDYAKL | -0.9814 log2 |
